Laboratory results from patent publication US7098001B2, “Polypeptides having dipeptidyl aminopeptidase activity and nucleic acids encoding same” (Novozymes, Inc., priority 1997, dated 2006).

Legend:
Type in all cases: biochemical
[1] = synergism of aminopeptidase I and dipeptidyl aminopeptidase I on Ala-Phe-Pro-pNA; details: 100-fold diluted enzyme alone, over 10 minutes
Description: The substrate was prepared by dissolving 2 mg of Ala-Phe-Pro-pNA (Bachem, Torrance, Calif.) in 20 μl of DMSO. Then, 980 μl of 50 mM sodium phosphate buffer pH 7.5 and 100 μl of ethanol were added. In a 96 well microtiter plate, 100 μl of the Ala-Phe-Pro-pNA solution was added to 100 μl of 100-fold diluted aminopeptidase I (Example 12); 100 μl of the Ala-Phe-Pro-pNA solution was added to 100 μl of 100-fold diluted dipeptidyl aminopeptidase I (Example 11); and 100 μl of the Ala-Phe-Pro-pNA solution was added to a mixture of 50 μl of 100-fold diluted aminopeptidase I and 50 μl of 100-fold diluted dipeptidyl aminopeptidase I. The absorbance at 405 nm was measured for 10 minutes.

[2] = activity of the purified enzymes on Leu-pNA; details: 100-fold dilution
Description: The enzyme solution was then loaded onto a XK-26 column containing Q-Sepharose Big Beads pre-equilibrated with 20 mM phosphate buffer pH 7.5 buffer. A gradient was run from 0 to 300 mM NaCl, and then washed with 350 ml of 300 mM NaCl. Fractions were assayed for Leu-pNA activity according to the following protocol. The substrate was prepared by dissolving 2 mg of Leu-pNA (Sigma Chemical Co., St. Louis, Mo.) in 20 μl of DMSO. Then, 980 μl of 50 mM sodium phosphate pH 7.5 buffer was added. In a 96 well microtiter plate, 100 μl of the substrate solution was added to 100 μl of Aspergillus oryzae aminopeptidase I (100 fold diluted in 50 mM sodium phosphate pH 7.5 buffer) and the increase in absorbance at 405 nm was measured for 4 minutes using a SpectroMax 340 plate reader.
The purified aminopeptidase I was determined to have an activity of 26.822 LAPUs/ml for Leu-pNA using an extinction coefficient of 10,000 for para-nitroaniline at 405 nm. LAPU is defined as the leucine aminopeptidase activity which is determined as described in AF 298/1-GB (available on request from Novo Nordisk A/S, Denmark). The purified dipeptidyl aminopeptidase I was determined to have an activity of 11.54 DPAPU/ml for Ala-Pro-pNA, also using an extinction coefficient of 10000 for paranitroaniline. […]

[3] = activity of the purified enzymes on Ala-Pro-pNA; details: purified enzyme; extinction coefficient of 10000
Description: A polypeptide of the present invention is added to the proteinaceous substrate in an effective amount conventionally employed in protein hydrolysis processes, preferably in the range of from about 0.1 to about 100,000 dipeptidyl aminopeptidase units (DPAPU) per 100 g of protein, and more preferably in the range of from about 1 to about 10,000 dipeptidyl aminopeptidase units per 100 g of protein. As defined herein, one dipeptidyl aminopeptidase Unit (DPAPU) is the amount of enyzme needed to release 1 micromole of p-nitroanilide per minute from Ala-Pro-p-nitroanilide (Sigma Chemical Co., St. Louis Mo.) under specified conditions.
The sample was then loaded onto a column (XK-26) containing 60 ml of Q-Sepharose Big Beads, which had been pre-equilibrated with 400 ml of 20 mM sodium phosphate pH 7.0 buffer. The column was washed until baseline was reached. […] In a 96 well microtiter plate, 100 μl of the substrate solution was added to 100 μl of Aspergillus oryzae dipeptidyl aminopeptidase I (100 fold diluted in 50 mM sodium phosphate buffer pH 7.5) and the increase in absorbance at 405 nm was measured for 4 minutes using a SpectroMax 340 plate reader (Molecular Devices, Sunnyvale, Calif.). […]
The purified aminopeptidase I was determined to have an activity of 26.822 LAPUs/ml for Leu-pNA using an extinction coefficient of 10,000 for para-nitroaniline at 405 nm. […]

[4] = system: gelatin, soy bean meal tablets, wheat gluten, and sodium-caseinate; assay: degree of hydrolysis (DH) assays, OPA method; details: 0.125 mg added to FLAVOURZYME 3 mg and ALCALASE 3 mg; 50 C, 18 hours; all proteins tested
Description: The degree of hydrolysis (DH) assays were performed at 50 ? C for 18 hours as a mini-hydrolysis on a 10 ml scale using gelatin, soy bean meal tablets, wheat gluten, and sodium-caseinate at a 2% concentration adjusted to pH 7, if necessary, with no pH adjustment during hydrolysis. The hydrolyses were inactivated at 85 ? C for 3 minutes in a waterbath. The enzymes used were FLAVOURZYME™ with ALCALASE™ 2.4L (Novo Nordisk A/S, Bagsvrd, Denmark) and dipeptidyl aminopeptidase I with FLAVOURZYME™ and ALCALASE™ 2.4L. FLAVOURZYME™, ALCALASE™, and dipeptidyl aminopeptidase I were dosed at 3 mg, 3 mg, 0.125 mg, respectively, per 200 mg of protein per ml.
The DH, as defined by Adler-Nissen (1986, Enzymic Hydrolysis of Food Proteins, Elsevier Applied Science Publishers), was determined by reaction of the supernatant with OPA (ortho-phtaldialdehyde, Sigma Chemical Co., St. Louis, Mo.). […]
A volume of 25 μl of suitably diluted supernatant was mixed with 200 μl of OPA reagent in a microtiter plate well and allowed to react for exactly 2 minutes at 25 ? C The absorbance at 340 nm was measured in a microtiter plate reader and compared to the absorbance of a […] L-serine standard solution after subtraction of the blank value (water reacted with OPA-reagent). […] The degree of hydrolysis was calculated on basis of the total amount of protein in the hydrolysis mixture (not on basis of soluble protein).

B1: dipeptidyl aminopeptidase I: Recombinant Aspergillus oryzae 1568 (ATCC 20386) dipeptidyl aminopeptidase I, 771 amino acids (SEQ ID NO:2), produced in Fusarium and purified (protein, listed as Aspergillus oryzae)
chain: MKYSKLLLLLVSVVQALDVPRKPHAPTGEGSKRLTFNETVVKQAITPTSRSVQWLSGAEDGSYVYAAEDGSLTIENIVTNESRTLIPADKIPTGKEAFNYWIHPDLSSVLWASNHTKQYRHSFFADYYVQDVESLKSVPLMPDQEGDIQYAQWSPVGNTIAFVRENDLYVWDNGTVTRITDDGGPDMFHGVPDWIYEEEILGDRYALWFSPDGEYLAYLSFNETGVPTYTVQYYMDNQEIAPAYPWELKIRYPKVSQTNPTVTLSLLNIASKEVKQAPIDAFESTDLIIGEVAWLTDTHTTVAAKAFNRVQDQQKVVAVDTASNKATVISDRDGTDGWLDNLLSMKYIGPIKPSDKDAYYIDISDHSGWAHLYLFPVSGGEPIPLTKGDWEVTSILSIDQERQLVYYLSTQHHSTERHLYSVSYSTFAVTPLVDDTVAAYWSASFSANSGYYILTYGGPDVPYQELYTTNSTKPLRTITDNAKVLEQIKDYALPNITYFELPLPSGETLNVMQRLPPGFSPDKKYPILFTPYGGPGAQEVTKRWQALNFKAYVASDSELEYVTWTVDNRGTGFKGRKFRSAVTRQLGLLEAEDQIYAAQQAANIPWIDADHIGIWGWSFGGYLTSKVLEKDSGAFTLGVITAPVSDWRFYDSMYTERYMKTLSTNEEGYETSAVRKTDGFKNVEGGFLIQHGTGDDNVHFQNSAALVDLLMGDGVSPEKLHSQWFTDSDHGISYHGGGVFLYKQLARKLYQEKNRQTQVLMHQWTKKDLEE
activity on Ala-Phe-Pro-pNA [1]: no activity | velocity on Leu-pNA [2]: < 2 mOD/min | activity for Ala-Pro-pNA [3]: 11.54 DPAPU/ml | increase of the degree of hydrolysis above FLAVOURZYME and ALCALASE alone [4]: 5%
